This note sets out measurements from patent US20150152171, “Modulation of TLR4-Signaling Pathway” (Rheinisch-Westfalische Technische, published 2015).

The series has as its target hnRNP K full-length (463 aa) (UniProt P61978 P61978:1-463). As to the kind of experiment: competition; 2R competes hnRNP K binding to TAK1 fragments 3, 5.1 and Akt2 fragments 1, 2. As to conditions: tags: His. As for the experimental part:
To analyze whether recombinant hnRNP K directly interacts with the Akt2 mRNA 3′UTR, UV-crosslinking experiments were performed with the [³²P]-labeled Akt2 mRNA 3′UTR subdivided in two fragments (1 and 2) (FIG. 19, lanes 1-5 and 6-10). Recombinant hnRNP K was bound strongly to both fragments (FIG. 19, lanes 1 and 6) and to the DICE, but not to the TAK1 mRNA 3′UTR fragment 4 that served as negative control (FIG. 19, lanes 11 and 12). Furthermore, it was investigated whether the short RNA consisting of 2 repeats of the DICE (2R) can be used to compete the binding of hnRNP K to the Akt2 mRNA 3′UTR fragments 1 and 2.

On to CCCCACCCUCUUCCCCAAGCCCCACCCUCUUCCCCAAG (ssRNA) [2R (two DICE repeats, 38 nt)], for which the binding result is reported as “binds”.
